Results published in patent US20210032299A1.
Starred links: 1 amine or outer side, 2 acyl side, 3 side chain; linkers in the order of their positions; H or OH if unused. Non-standard residues stand in square brackets, D forms with d. Groups on a side chain read outwards from the residue. No end group written: not given here. *: point of attachment. C20 diacid = O=C(O)CCCCCCCCCCCCCCCCCCC(=O)*; C18 diacid = O=C(O)CCCCCCCCCCCCCCCCC(=O)*; γGlu = O=C(O)[C@H](CCC(=O)[*:2])N[*:1]; αMeL = CC(C)C[C@](C)(N)C(=O)O; Orn = NCCC[C@H](N)C(=O)O; AEEA = NCCOCCOCC(=O)O; Aib = CC(C)(N)C(=O)O

Molecular target: T1, human glucose-dependent insulinotropic polypeptide (GIP) receptor (human), P48546
T1 chain: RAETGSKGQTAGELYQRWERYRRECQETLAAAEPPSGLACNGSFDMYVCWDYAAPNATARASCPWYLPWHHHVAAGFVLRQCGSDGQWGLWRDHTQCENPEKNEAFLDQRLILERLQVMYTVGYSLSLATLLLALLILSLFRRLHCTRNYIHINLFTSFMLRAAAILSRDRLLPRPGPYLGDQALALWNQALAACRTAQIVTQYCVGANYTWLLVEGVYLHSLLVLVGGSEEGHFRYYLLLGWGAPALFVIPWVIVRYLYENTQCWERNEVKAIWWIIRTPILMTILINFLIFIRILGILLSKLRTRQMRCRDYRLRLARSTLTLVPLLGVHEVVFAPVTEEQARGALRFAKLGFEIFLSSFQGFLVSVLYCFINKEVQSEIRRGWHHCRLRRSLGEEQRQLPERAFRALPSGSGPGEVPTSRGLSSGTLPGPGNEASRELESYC
Experiment: SPA, displacement of [125I]-GIP from hGIPR membranes, 0.1% bacitracin

Binder | Ki
Y[Aib]EGTFISDYSI[αMeL]LD[Orn]IHQ[Aib]EFV[dE]YK([AEEA-AEEA-γGlu-C18 diacid])LEGGPSSGAPPPS-NH2 (N-terminus assumed; SMILES CC[C@H](C)[C@H](NC(=O)[C@H](CCCN)NC(=O)[C@H](CC(=O)O)NC(=O)[C@H](CC(C)C)NC(=O)[C@](C)(CC(C)C)NC(=O)[C@@H](NC(=O)[C@H](CO)NC(=O)[C@H](Cc1ccc(O)cc1)NC(=O)[C@H](CC(=O)O)NC(=O)[C@H](CO)NC(=O)[C@@H](NC(=O)[C@H](Cc1ccccc1)NC(=O)[C@@H](NC(=O)CNC(=O)[C@H](CCC(=O)O)NC(=O)C(C)(C)NC(=O)[C@@H](N)Cc1ccc(O)cc1)[C@@H](C)O)[C@@H](C)CC)[C@@H](C)CC)C(=O)N[C@@H](Cc1c[nH]cn1)C(=O)N[C@@H](CCC(N)=O)C(=O)NC(C)(C)C(=O)N[C@@H](CCC(=O)O)C(=O)N[C@@H](Cc1ccccc1)C(=O)N[C@H](C(=O)N[C@H](CCC(=O)O)C(=O)N[C@@H](Cc1ccc(O)cc1)C(=O)N[C@@H](CCCCNC(=O)COCCOCCNC(=O)COCCOCCNC(=O)CC[C@H](NC(=O)CCCCCCCCCCCCCCCCC(=O)O)C(=O)O)C(=O)N[C@@H](CC(C)C)C(=O)N[C@@H](CCC(=O)O)C(=O)NCC(=O)NCC(=O)N1CCC[C@H]1C(=O)N[C@@H](CO)C(=O)N[C@@H](CO)C(=O)NCC(=O)N[C@@H](C)C(=O)N1CCC[C@H]1C(=O)N1CCC[C@H]1C(=O)N1CCC[C@H]1C(=O)N[C@@H](CO)C(N)=O)C(C)C) [Example 7] | 0.193 nM
Y[Aib]EGTFISDYSIALDKIHQ[Aib]EFVNYK([AEEA-AEEA-γGlu-C20 diacid])LAGGPSSGAPPPS-NH2 (N-terminus assumed; SMILES CC[C@H](C)[C@H](NC(=O)[C@H](CO)NC(=O)[C@H](Cc1ccc(O)cc1)NC(=O)[C@H](CC(=O)O)NC(=O)[C@H](CO)NC(=O)[C@@H](NC(=O)[C@H](Cc1ccccc1)NC(=O)[C@@H](NC(=O)CNC(=O)[C@H](CCC(=O)O)NC(=O)C(C)(C)NC(=O)[C@@H](N)Cc1ccc(O)cc1)[C@@H](C)O)[C@@H](C)CC)C(=O)N[C@@H](C)C(=O)N[C@@H](CC(C)C)C(=O)N[C@@H](CC(=O)O)C(=O)N[C@@H](CCCCN)C(=O)N[C@H](C(=O)N[C@@H](Cc1c[nH]cn1)C(=O)N[C@@H](CCC(N)=O)C(=O)NC(C)(C)C(=O)N[C@@H](CCC(=O)O)C(=O)N[C@@H](Cc1ccccc1)C(=O)N[C@H](C(=O)N[C@@H](CC(N)=O)C(=O)N[C@@H](Cc1ccc(O)cc1)C(=O)N[C@@H](CCCCNC(=O)COCCOCCNC(=O)COCCOCCNC(=O)CC[C@H](NC(=O)CCCCCCCCCCCCCCCCCCC(=O)O)C(=O)O)C(=O)N[C@@H](CC(C)C)C(=O)N[C@@H](C)C(=O)NCC(=O)NCC(=O)N1CCC[C@H]1C(=O)N[C@@H](CO)C(=O)N[C@@H](CO)C(=O)NCC(=O)N[C@@H](C)C(=O)N1CCC[C@H]1C(=O)N1CCC[C@H]1C(=O)N1CCC[C@H]1C(=O)N[C@@H](CO)C(N)=O)C(C)C)[C@@H](C)CC) [Example 96] | 0.232 nM
Y[Aib]EGTFISDYSI[αMeL]LD[Orn]IHQ[Aib]DFV[dE]YK([AEEA-AEEA-γGlu-C20 diacid])LEGGPSSGAPPPS-NH2 [Example 101] | 0.139 nM
Y[Aib]EGTFISDYSI[αMeL]LD[Orn]IHQ[Aib]EFV[dE]YK([AEEA-AEEA-γGlu-C20 diacid])LEGGPSSGAPPPS-NH2 (N-terminus assumed; SMILES CC[C@H](C)[C@H](NC(=O)[C@H](CCCN)NC(=O)[C@H](CC(=O)O)NC(=O)[C@H](CC(C)C)NC(=O)[C@](C)(CC(C)C)NC(=O)[C@@H](NC(=O)[C@H](CO)NC(=O)[C@H](Cc1ccc(O)cc1)NC(=O)[C@H](CC(=O)O)NC(=O)[C@H](CO)NC(=O)[C@@H](NC(=O)[C@H](Cc1ccccc1)NC(=O)[C@@H](NC(=O)CNC(=O)[C@H](CCC(=O)O)NC(=O)C(C)(C)NC(=O)[C@@H](N)Cc1ccc(O)cc1)[C@@H](C)O)[C@@H](C)CC)[C@@H](C)CC)C(=O)N[C@@H](Cc1c[nH]cn1)C(=O)N[C@@H](CCC(N)=O)C(=O)NC(C)(C)C(=O)N[C@@H](CCC(=O)O)C(=O)N[C@@H](Cc1ccccc1)C(=O)N[C@H](C(=O)N[C@H](CCC(=O)O)C(=O)N[C@@H](Cc1ccc(O)cc1)C(=O)N[C@@H](CCCCNC(=O)COCCOCCNC(=O)COCCOCCNC(=O)CC[C@H](NC(=O)CCCCCCCCCCCCCCCCCCC(=O)O)C(=O)O)C(=O)N[C@@H](CC(C)C)C(=O)N[C@@H](CCC(=O)O)C(=O)NCC(=O)NCC(=O)N1CCC[C@H]1C(=O)N[C@@H](CO)C(=O)N[C@@H](CO)C(=O)NCC(=O)N[C@@H](C)C(=O)N1CCC[C@H]1C(=O)N1CCC[C@H]1C(=O)N1CCC[C@H]1C(=O)N[C@@H](CO)C(N)=O)C(C)C) [Example 102] | 0.164 nM
Y[Aib]EGTFISDYSI[αMeL]LD[Orn]IHQ[Aib]DFVEYK([AEEA-AEEA-γGlu-C18 diacid])LEGGPSSGAPPPS-NH2 (N-terminus assumed; SMILES CC[C@H](C)[C@H](NC(=O)[C@H](CCCN)NC(=O)[C@H](CC(=O)O)NC(=O)[C@H](CC(C)C)NC(=O)[C@](C)(CC(C)C)NC(=O)[C@@H](NC(=O)[C@H](CO)NC(=O)[C@H](Cc1ccc(O)cc1)NC(=O)[C@H](CC(=O)O)NC(=O)[C@H](CO)NC(=O)[C@@H](NC(=O)[C@H](Cc1ccccc1)NC(=O)[C@@H](NC(=O)CNC(=O)[C@H](CCC(=O)O)NC(=O)C(C)(C)NC(=O)[C@@H](N)Cc1ccc(O)cc1)[C@@H](C)O)[C@@H](C)CC)[C@@H](C)CC)C(=O)N[C@@H](Cc1c[nH]cn1)C(=O)N[C@@H](CCC(N)=O)C(=O)NC(C)(C)C(=O)N[C@@H](CC(=O)O)C(=O)N[C@@H](Cc1ccccc1)C(=O)N[C@H](C(=O)N[C@@H](CCC(=O)O)C(=O)N[C@@H](Cc1ccc(O)cc1)C(=O)N[C@@H](CCCCNC(=O)COCCOCCNC(=O)COCCOCCNC(=O)CC[C@H](NC(=O)CCCCCCCCCCCCCCCCC(=O)O)C(=O)O)C(=O)N[C@@H](CC(C)C)C(=O)N[C@@H](CCC(=O)O)C(=O)NCC(=O)NCC(=O)N1CCC[C@H]1C(=O)N[C@@H](CO)C(=O)N[C@@H](CO)C(=O)NCC(=O)N[C@@H](C)C(=O)N1CCC[C@H]1C(=O)N1CCC[C@H]1C(=O)N1CCC[C@H]1C(=O)N[C@@H](CO)C(N)=O)C(C)C) [Example 103] | 0.0405 nM
Y[Aib]EGTFISDYSI[αMeL]LD[Orn]IHQ[Aib]EFVEYK([AEEA-AEEA-γGlu-C20 diacid])LEAGPSSGAPPPS-NH2 (N-terminus assumed; SMILES CC[C@H](C)[C@H](NC(=O)[C@H](CCCN)NC(=O)[C@H](CC(=O)O)NC(=O)[C@H](CC(C)C)NC(=O)[C@](C)(CC(C)C)NC(=O)[C@@H](NC(=O)[C@H](CO)NC(=O)[C@H](Cc1ccc(O)cc1)NC(=O)[C@H](CC(=O)O)NC(=O)[C@H](CO)NC(=O)[C@@H](NC(=O)[C@H](Cc1ccccc1)NC(=O)[C@@H](NC(=O)CNC(=O)[C@H](CCC(=O)O)NC(=O)C(C)(C)NC(=O)[C@@H](N)Cc1ccc(O)cc1)[C@@H](C)O)[C@@H](C)CC)[C@@H](C)CC)C(=O)N[C@@H](Cc1c[nH]cn1)C(=O)N[C@@H](CCC(N)=O)C(=O)NC(C)(C)C(=O)N[C@@H](CCC(=O)O)C(=O)N[C@@H](Cc1ccccc1)C(=O)N[C@H](C(=O)N[C@@H](CCC(=O)O)C(=O)N[C@@H](Cc1ccc(O)cc1)C(=O)N[C@@H](CCCCNC(=O)COCCOCCNC(=O)COCCOCCNC(=O)CC[C@H](NC(=O)CCCCCCCCCCCCCCCCCCC(=O)O)C(=O)O)C(=O)N[C@@H](CC(C)C)C(=O)N[C@@H](CCC(=O)O)C(=O)N[C@@H](C)C(=O)NCC(=O)N1CCC[C@H]1C(=O)N[C@@H](CO)C(=O)N[C@@H](CO)C(=O)NCC(=O)N[C@@H](C)C(=O)N1CCC[C@H]1C(=O)N1CCC[C@H]1C(=O)N1CCC[C@H]1C(=O)N[C@@H](CO)C(N)=O)C(C)C) [Example 104] | 0.134 nM
Y[Aib]EGTFISDYSI[αMeL]LD[Orn]IHQ[Aib]EFVEYK([AEEA-AEEA-γGlu-C20 diacid])LETGPSSGAPPPS-NH2 (N-terminus assumed; SMILES CC[C@H](C)[C@H](NC(=O)[C@H](CCCN)NC(=O)[C@H](CC(=O)O)NC(=O)[C@H](CC(C)C)NC(=O)[C@](C)(CC(C)C)NC(=O)[C@@H](NC(=O)[C@H](CO)NC(=O)[C@H](Cc1ccc(O)cc1)NC(=O)[C@H](CC(=O)O)NC(=O)[C@H](CO)NC(=O)[C@@H](NC(=O)[C@H](Cc1ccccc1)NC(=O)[C@@H](NC(=O)CNC(=O)[C@H](CCC(=O)O)NC(=O)C(C)(C)NC(=O)[C@@H](N)Cc1ccc(O)cc1)[C@@H](C)O)[C@@H](C)CC)[C@@H](C)CC)C(=O)N[C@@H](Cc1c[nH]cn1)C(=O)N[C@@H](CCC(N)=O)C(=O)NC(C)(C)C(=O)N[C@@H](CCC(=O)O)C(=O)N[C@@H](Cc1ccccc1)C(=O)N[C@H](C(=O)N[C@@H](CCC(=O)O)C(=O)N[C@@H](Cc1ccc(O)cc1)C(=O)N[C@@H](CCCCNC(=O)COCCOCCNC(=O)COCCOCCNC(=O)CC[C@H](NC(=O)CCCCCCCCCCCCCCCCCCC(=O)O)C(=O)O)C(=O)N[C@@H](CC(C)C)C(=O)N[C@@H](CCC(=O)O)C(=O)N[C@H](C(=O)NCC(=O)N1CCC[C@H]1C(=O)N[C@@H](CO)C(=O)N[C@@H](CO)C(=O)NCC(=O)N[C@@H](C)C(=O)N1CCC[C@H]1C(=O)N1CCC[C@H]1C(=O)N1CCC[C@H]1C(=O)N[C@@H](CO)C(N)=O)[C@@H](C)O)C(C)C) [Example 105] | 0.174 nM
